Test results published in article PMC9672922 (Cellular and Molecular Gastroenterology and Hepatology, 2022).

How the values were obtained:
Assay in all cases: peptide or protein array
[1] = target: carbonic anhydrase 1 on the ProtoArray Human Protein Microarray (human, UniProt P00915 1-261)
[2] = target: T1, chromosome 7 open reading frame 50 on the ProtoArray Human Protein Microarray (human, UniProt Q9BRJ6 1-194)
T1 sequence (looked up): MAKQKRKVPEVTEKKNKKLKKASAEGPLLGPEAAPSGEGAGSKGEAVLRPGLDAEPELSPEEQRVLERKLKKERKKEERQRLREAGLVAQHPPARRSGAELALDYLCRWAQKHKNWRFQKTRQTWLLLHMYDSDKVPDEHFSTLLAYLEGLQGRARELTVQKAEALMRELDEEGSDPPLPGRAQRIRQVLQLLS

[3] = target: mitogen-activated protein kinase kinase 2 (MEK2) on the ProtoArray Human Protein Microarray (human, UniProt P36507 1-400)
[4] = target: casein kinase 1ε (CK1ε) on the ProtoArray Human Protein Microarray (human, UniProt P49674 1-416)
Chain of casein kinase 1ε (CK1ε) on the ProtoArray Human Protein Microarray (P49674 whole entry): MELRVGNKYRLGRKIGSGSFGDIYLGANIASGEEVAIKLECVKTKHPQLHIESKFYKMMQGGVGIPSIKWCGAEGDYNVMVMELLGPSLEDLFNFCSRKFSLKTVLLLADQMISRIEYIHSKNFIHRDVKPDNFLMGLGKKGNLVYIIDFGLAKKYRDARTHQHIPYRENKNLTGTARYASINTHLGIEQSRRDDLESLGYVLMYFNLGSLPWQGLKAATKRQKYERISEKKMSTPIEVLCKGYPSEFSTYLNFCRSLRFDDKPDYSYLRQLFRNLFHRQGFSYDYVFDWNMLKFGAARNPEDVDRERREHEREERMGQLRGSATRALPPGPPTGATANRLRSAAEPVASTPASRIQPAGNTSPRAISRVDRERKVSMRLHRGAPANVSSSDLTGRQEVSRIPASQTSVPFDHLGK

[5] = target: glycogen synthase kinase 3β (GSK3β) on the ProtoArray Human Protein Microarray (human, UniProt P49841 1-420)
Chain of glycogen synthase kinase 3β (GSK3β) on the ProtoArray Human Protein Microarray (P49841 whole entry): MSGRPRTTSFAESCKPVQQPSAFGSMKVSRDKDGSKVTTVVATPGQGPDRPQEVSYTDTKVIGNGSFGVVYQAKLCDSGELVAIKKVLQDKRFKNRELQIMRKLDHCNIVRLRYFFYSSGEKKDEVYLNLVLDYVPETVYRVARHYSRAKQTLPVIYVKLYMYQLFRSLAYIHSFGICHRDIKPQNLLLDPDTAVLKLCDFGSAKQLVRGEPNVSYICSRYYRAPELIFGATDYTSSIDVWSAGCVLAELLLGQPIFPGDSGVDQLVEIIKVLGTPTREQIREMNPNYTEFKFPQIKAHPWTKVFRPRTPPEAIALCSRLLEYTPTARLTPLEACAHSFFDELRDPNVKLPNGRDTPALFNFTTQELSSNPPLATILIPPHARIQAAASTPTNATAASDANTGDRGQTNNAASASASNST

Measured: binding result

Chain of carbonic anhydrase 1 on the ProtoArray Human Protein Microarray (P00915 whole entry): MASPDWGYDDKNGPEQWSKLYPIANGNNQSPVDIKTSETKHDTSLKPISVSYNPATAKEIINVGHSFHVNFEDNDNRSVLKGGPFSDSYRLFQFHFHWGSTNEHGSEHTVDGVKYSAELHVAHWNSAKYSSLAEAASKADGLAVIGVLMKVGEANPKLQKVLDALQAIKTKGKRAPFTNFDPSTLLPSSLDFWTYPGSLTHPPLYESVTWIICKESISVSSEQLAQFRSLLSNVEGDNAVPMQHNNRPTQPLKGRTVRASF

B1: V5-SRGY (RBMY amino acid residues 227–374, 4 repeated SRGY box domains) (domain or fragment, human, UniProt P0DJD3-1 227-374, looked up)
chain: ETRDYAPPSRGYAYRDNGHSNRDEHSSRGYRNHRSSRETRDYAPPSRGHAYRDYGHSRRDESYSRGYRNRRSSRETREYAPPSRGHGYRDYGHSRRHESYSRGYRNHPSSRETRDYAPPHRDYAYRDYGHSSWDEHSSRGYSYHDGYG
binds: all assays above
